{"source": "the DeepSol protein solubility set"}
{"test": "soluble on expression in E. coli; label from the status in PepcDB or PDB records"}
{"sequence": "AQKPWEKDAWEIPRESLKLEKKLGAGQFGEVWMATYNKHTKVAVKTMKPGSMSVEAFLAEANVMKTLQHDKLVKLHAVVTKEPIYIITEFMAKGSLLDFLKSDEGSKQPLPKLIDFSAQIAEGMAFIEQRNYIHRDLRAANILVSASLVCKIADFGLARVIEDNEYTAREGAKFPIKWTAPEAINFGSFTIKSDVWSFGILLMEIVTYGRIPYPGMSNPEVIRALERGYRMPRPENCPEELYNIMMRCWKNRPEERPTFEYIQSVLDDFE", "soluble on expression in E. coli": "soluble"}
{"sequence": "MSKAFDLVVIGAGSGGLEAGWNAATLYGKRVAVVDVQTSHGPPFYAALGGTCVNVGCVPKKLMVTGAQYMDHLRESAGFGWEFDGSSVKANWKKLIAAKNEAVLDINKSYEGMFNDTEGLDFFLGWGSLESKNVVVVRETADPKSAVKERLQADHILLATGSWPQMPAIPGIEHCISSNEAFYLPEPPRRVLTVGGGFISVEFAGIFNAYKPPGGKVTLCYRNNLILRGFDETIREEVTKQLTANGIEIMTNENPAKVSLNTDGSKHVTFESGKTLDVDVVMMAIGRIPRTNDLQLGNVGVKLTPKGGVQVDEFSRTNVPNIYAIGDITDRLMLTPVAINEGAALVDTVFGNKPRKTDHTRVASAVFSIPPIGTCGLIEEVAAKEFEKVAVYMSSFTPLMHNISGSKYKKFVAKIVTNHSDGTVLGVHLLGDGAPEIIQAVGVCLRLNAKISDFYNTIGVHPTSAEELCSMRTPSYYYVKGEKMEKLPDSNL", "soluble on expression in E. coli": "soluble"}
{"sequence": "SDPNKAEISRLEVLPQDLLGEIVAKIGAKYAEDYHNCILSCKELGASANDERVLKTLNLAPLVKKPLSCRKHLLIMKKCLANNNPDAHYIKGIIWYFNLDHCDVGLHHIGIAAN", "soluble on expression in E. coli": "soluble"}
{"sequence": "MGSDKIHHHHHHMPAVVVREYARLTTAPLPQNTLDAAHISPSAFSWLVKLGQQFKANGLQLLELDDQQWLRLDNYVGVLESPCGQVIEILPKHRVEGECINSARKLLRKLILNALQLKQRETEYTDIERFDAPLTEWLMAQFLTELDSVIKRGMRFDYQRIEESQRFLRGQLDVVKQLRQPAGREHIFNIRHDIFTADRAENRLLKTALLRVCKTTQDNDNWRLAHELQSLLHELPTSTDIQADFTTWRSDRLMAHYQAIKPWCEFVLSQHVPLAVQGLWQGISMLFPMERLFESYVAAELDAAVQRMLGVKGEVRTQLASKYLCKHQGKDFFQLQPDLQLKLGADHWILDTKWKLLDASDKENKYGLSQQDFYQLFAYGQTYLGGDGTLVLIYPAWHKFPAGTYLGEFRFNDKLTLKVLPFDLDAQNAAKDLISKLQQGVKQSLPS", "soluble on expression in E. coli": "not soluble"}
{"sequence": "MGSDKIHHHHHHMSNTPIELKGSSFTLSVVHLHEAEPKVIHQALEDKIAQAPAFLKHAPVVLNVSALEDPVNWSAMHKAVSATGLRVIGVSGCKDAQLKAEIEKMGLPILTEGKEKAPRPAPTPQAPAQNTTPVTKTRLIDTPVRSGQRIYAPQCDLIVTSHVSAGAELIADGNIHVYGMMRGRALAGASGDRETQIFCTNLMAELVSIAGEYWLSDQIPAEFYGKAARLQLVENALTVQPLN", "soluble on expression in E. coli": "not soluble"}
{"sequence": "MDPNKFREKEISKKEALELFEDNEIIFELFKFADSLRREEVGDIVTYVVNRNINFTNICVGNCRFCAFRANENDKHAYFLDIDEIAKRAVEAKKFGCTEVCIQGGLHPKIDTYYQAEILKAVHEATKPYGDIHIHAFSPMEVYFGAENAGLDIKEALKILKENGLNSMPGTAAEILDDDIRAELCPNKIKTKEWIYIIKEAHKLGIPTTATMMYGHIEEYKHWVNHLFIIKEIQEETNGFTEFVPLSFMHKYAPIYKEGKAKAGATGIEDLKVFAVSRIIFKGLIKNIQASWVKLGKKMVQVALRCGANDVGGTLIEESISRSAGAEHGVYMSVEEIRDMIKRVGLIPKERTTLYKILE", "soluble on expression in E. coli": "not soluble"}
{"sequence": "MGSDKIHHHHHHMTSYVLTVSCPSKRGIVAALSGYLAEMGCNIVDSSQFDDLDTDRFFMRVSFISEQGASREKIEAGLAPIVDNFQMEIGLYDSTERVKVLLMVSRFGHCLNDLLYRWKIGALPIDIVGVVSNHFDYQKVVVNHDIPFHHIKVTKDNKPQAEAQLMELVQQTGTELIVLARYMQVLSDAMCQKMSGKIINIHHSFLPSFKGANPYKQAFERGVKLIGATAHYVTADLDEGPIIEQDVARVTHAQNAEDYVSIGRDVESQVLARAIHAHIHHRTFINGNKSVVFPASPGSYASERMG", "soluble on expression in E. coli": "not soluble"}
{"sequence": "MKSMQDYRTIMTGNDAVAYGAKLARVKLISAYPITPQTTIVEKLASMIANDELDAKYVKVESEHSALATVVSSELAGVRSYTATSSHGLLYMHEMLHWASGQRLPIVMSVVNRAIGPPWNIWADQSDTMNQKDTGWMQVYCESNQEALDTIIMGYKIAENKDVLLPLMSMEDAFILSHTSEPVTIRDQESVNEYLPDLDLPFKINEEHPMGYGSYDTPDGSFMELKKDMVDSMQKAKRIIEDETRKFNEMFGTEYGGLIEKYRMEDADYAIIATGTIASTARYVVDILRKKGEKVGLIRIRYFRPFPYEEILSSLKYVKAAGVIDRSVSFSSGGPTYVEIVQGLYGKLNVPLSSFIAGIGGRDVRIQDIENIYEMLKSGNSGTYWINVKEVR", "soluble on expression in E. coli": "not soluble"}
{"sequence": "MGQFILEIYKIRIVSQTHLFSKLIFHSFLSFLFNDFSHLSASLPPLIDLSTKKKLLARASEGATSSSSPLPPASTATLSAFRPPARMIPPPVVLPQQYAPLPGFTPLLPAQAMMANFPPNALYQLGTPPFENGNNRIRFKDAAMVVLSRLSFNQRRLDNAHQ", "soluble on expression in E. coli": "not soluble"}
{"sequence": "MRVVAFVPGSISDQILFFPTLDDLKRYYPDAQIDVIVESQSKAAYRLSKSVHEVLTFDYSDHNSLADWGNLVGTIRDREYDVAMTTGESWFIGLFLWLTGIPTRIGYKGKGAGFLTNTIRRNTSQYVAAMYHDLLKPVGIKTPCPELTANVPKPDIQWAQQEQKRLGIHETGYILIYGGSSHSSQIDGADTSYPIASWQQIIQDCQHKQPELPIVLIKEADDENFVRVLLESCSNLKITSPDDIGKLTAIISGASLMLSIENGPLQLAVAVQTYTIALLSSTDADKLLPKSDKFLAIKSHSGKTVDIPPPTVLEKIWGG", "soluble on expression in E. coli": "not soluble"}
{"sequence": "MAVPVQFRKPPMGGIGKKVAYYPGCSLEGAARAYDVSTRIVAKELGLELDYLEDYNCCGAMETKNVSFWGTMLLNARNMSLARRQGHNVIVAPCNGCSFSLQRVEYFLETDKNTLDRINQLLQEAGEKPLDNIPHTYHILEWFYHEAGPEKVKEKTKKPLRGLKVASYYGCLYTRPHFYARTYSHLAPEDEEQARPRKRETADDDEHPYYMEALLEAAGATSVEIEPMHTQCCGGPHSLSDEEVSEKFVMMILQTAKRNGADIIATECPLCHASLEMYRHRLMLKGVPDVDVPAAYFTQLLGLAFGYSVNDVKLKDNLSDPIPVLKRLGLA", "soluble on expression in E. coli": "not soluble"}
{"sequence": "MGSDKIHHHHHHMNKSIRSSTLTRIRLIEAASQVFASLGVQGATTREIARVAGVNEVTLFRHFASKEQLLGAVIKNALALQTEALAYPEAWTQDLKIDLRQYAHLYNTMLEAQEDLIRTFIGEAKRHPEAAKQVIQEAAKPLREKLVAYLESSQKLGTVRVDLAPFPAVDMFTGMLLAGMLCRSAKFNQGSYSCEDYIETCVDIFVRGISTSNSSQCGCKF", "soluble on expression in E. coli": "not soluble"}
{"sequence": "AASWSHPQFEKGAETAVPNSGGGELFATHCAGCHPQGGNTVHPEKTLARARREANGIRTVRDVAAYIRNPGPGMPAFGEAMIPPADALKIGEYVVASFP", "soluble on expression in E. coli": "soluble"}
{"sequence": "MGSDKIHHHHHHMQYIHVVNGDVAGNTLRQALAQAARPDPVVVLRDDLAVGPLVDVDSTGSIRSGFWQRVAPHTDIDFAAEMRQALDQLQKLRQSDMEIAIWHGQSAADQLMLRRVVFHLYQAPQRINEVAMDLRELELPPQAGLAAIGMYSPARLARRFSTIAPVSVLRLGRLGYEWQQNVRENADVRLWKGNTLVAAAYHSIDDIIMERAPSEWTPAAEVVGSVMGAIEGLLASDWFVFWRCRELISMGRMVLRGNADSLDTCELRRHVIASAE", "soluble on expression in E. coli": "not soluble"}
{"sequence": "MGSDKIHHHHHHSLSGRAQTEKPSALVKVGDYRASTDFLNLSAYYQTIRPVTVKVAYVSTYKTQHTIMQKLTLPAGLTVAGNLTTTKHGSYLVPSLQLYLARLSYPALQNSAKANYTLDPGTSAYSPQATISDTTKLRAFKRVAAPDYMPGYSHGDLYIGGAKAALSPVEPTTKSIRITPDGYVEVLKYDTKANAGLGFYQKPVSLAKIVKTRFHDPNRTLYLNHPLASVKTKAITQNGQTRYRLTLKNLHTPQHIAGDPETGTAGTFDSLYSIGGTTYYTFIGYDGVSN", "soluble on expression in E. coli": "not soluble"}
{"sequence": "MKRSSVFSFLVAFLLVAGCSHKMDNKTVAGDVSAKTVQTAPVTTEPAPEKEEPKQEPAPVVEEKPAVESGTIIASIYFDFDKYEIKESDQETLDEIVQKAKENHMQVLLEGNTDEFGSSEYNQALGVKRTLSVKNALVIKGVEKDMIKTISFGETKPKCAQKTRECYKENRRVDVKLMK", "soluble on expression in E. coli": "not soluble"}
{"sequence": "FEELAKQIKLAKTPRLLISLKAEVPMAIGWLKPVVLLPASMVTGLNAAQLEMLILHELAHIRRHDYLVNFLQTLIELLFFFHPSVHWIGKQMRNEREYCSDDIAVQHCGDAIAYAHTLTDTASLCAKNHFHTIPTMAMAASGGDL", "soluble on expression in E. coli": "not soluble"}
{"sequence": "GATVHELSRDKKKDTVPWFPRTIQELDRFANQILSYGAELDADHPGFKDPVYRARRKQFADIAYNYRHGQPIPRVEYMEEEKKTWGTVFKTLKSLYKTHACYEYNHIFPLLEKYCGFHEDNIPQLEDVSQFLQTCTGFRLRPVAGLLSSRDFLGGLAFRVFHCTQYIRHGSKPMYTPEPDICHELLGHVPLFSDRSFAQFSQEIGLASLGAPDEYIEKLATIYWFTVEFGLCKQGDSIKAYGAGLLSSFGELQYCLSEKPKLLPLELEKTAIQNYTVTEFQPLYYVAESFNDAKEKVRNFAATIPRPFSVRYDPYTQRIEVLDNT", "soluble on expression in E. coli": "soluble"}
{"sequence": "MAGHVNGTCAPVIPKVGDEEDGVGQLVANLKEKGTNFVLLKKTPQILELQTILKDRSTNHSDFVFNADRLMRLVIEECLNHLPFTEHTVTTPTGFKYEGIQFNRGNCGVSLCRSGEAMEVSLRQCCRCIRIGKILIGDEQKVLYARLLPDITSRRVLLLYPTIGSGTTVCKAIEVLKEARVPDENIYLVSLFISPTGLKNITRKYPYITVVASDITSLYPNHFSTSYFGAV", "soluble on expression in E. coli": "not soluble"}
{"sequence": "MSYVIDRRLNGKNKSTVNRQRFLRRYREHIKKAVEEAVSRRSITDMEHGEQISIPGRDIDEPVLHHGRGGRQTVVHPGNKEFTAGEHIARPSGGGGGRGGGKASNSGEGMDDFVFQITQEEFLDFMFEDLELPNLVKRHITGTDTFKTVRAGISNDGNPSRINIVRTLRSAHARRIALSGGSRAKLRAALKELERIKREEPDNLGDIQELELEIAKLRARIDRVPFLDTFDLKYNLLVKQPNPTSKAVMFCLMDVSGSMTQATKDIAKRFFILLYLFLKRNYEKIEVVFIRHHTSAREVDEEEFFYSRETGGTIVSSALKMMQEIMAERYPTHEWNIYAAQASDGDNWNDDSPVCRDILLKQIMPFVQYYTYVEITPREHQALWFEYERVREAFEDSFAQQQIVSASDIYPVFRELFQRRLVAKLAAALEHHHHHH", "soluble on expression in E. coli": "not soluble"}
{"sequence": "MGHHHHHHSHMVGSRRVKAQTFAERRERSFSRSWSDPTPMKADTSHDSRDSSDLQSSHCTLDEAFEDLDWDTEKGLEAVACDTEGFVPPKVMLISSKVPKAEYIPTIIRRDDPSIIPILYDHEHATFEDILEEIERKLNVYHKGAKIWKMLIFCQGGPGHLYLLKNKVATFAKVEKEEDMIHFWKRLSRLMSKVNPEPNVIHIMGCYILGNPNGEKLFQNLRTLMTPYRVTFESPLELSAQGKQMIETYFDFRLYRLWKSRQHSKLLDFDDVL", "soluble on expression in E. coli": "not soluble"}
{"sequence": "MDKNRVFGQRLRQSIQNYFSSPWLLYTAKAEALLDLRDDEAMLNEMEAVGELPMALEYESLTDVQTQIVTAIQAELAHFRNTAQPINLGAVLQEQLARYPQSRHFDVARIIVDQAVKLGMASQDHQAVYPVWQPIDDFSAAVQAHLIDQYDK", "soluble on expression in E. coli": "soluble"}
{"sequence": "KQSKLTLMSESLRNDGRIWVPKKLEDAKALQAGTKKPTDIPDADRDFYLERRYPAFGNLVPRDVASRAAKERCDAGFGVNNTGLAVFLDFKYAIDRLGEDVVRARYGNLFDMYEEITDENPYKTPMMIFPA", "soluble on expression in E. coli": "soluble"}
